Measured values taken from PMC10149257, “Substrate recognition and proton coupling by a bacterial member of solute carrier family 17” (The Journal of Biological Chemistry, 2023).
Numbering of substitutions follows the chain as printed. One block for each molecule: values may come before it.

Experiments:
[1] = system: T1, O=C(O)[C@H](O)[C@@H](O)[C@@H](O)[C@H](O)CO; assay: cells, lysate or membranes; type: cell-based, Escherichia coli; settings: 150 mM KCl, pH 6, 30 °C, 30 s, H+ cotransport, labelled compound
T1 construct: full length, C-terminal modified decahistidine tag, pBAD; expressed in dgoT-deleted E. coli (Keio dgoT727(del)::kan)

Sialin [2] = target: T2, Sialin (Rattus norvegicus, UniProt Q5Q0U0, Y54F, form not given); assay: inhibition of 3H-glucuronic acid uptake by unlabelled compound in transfected HEK293T cells; type: cell-based; settings: room temperature, 4 min, Ringer's solution; self-competition with labelled compound
T2 construct: gene Slc17a5
T2 sequence (Q5Q0U0 1-495 Y54F): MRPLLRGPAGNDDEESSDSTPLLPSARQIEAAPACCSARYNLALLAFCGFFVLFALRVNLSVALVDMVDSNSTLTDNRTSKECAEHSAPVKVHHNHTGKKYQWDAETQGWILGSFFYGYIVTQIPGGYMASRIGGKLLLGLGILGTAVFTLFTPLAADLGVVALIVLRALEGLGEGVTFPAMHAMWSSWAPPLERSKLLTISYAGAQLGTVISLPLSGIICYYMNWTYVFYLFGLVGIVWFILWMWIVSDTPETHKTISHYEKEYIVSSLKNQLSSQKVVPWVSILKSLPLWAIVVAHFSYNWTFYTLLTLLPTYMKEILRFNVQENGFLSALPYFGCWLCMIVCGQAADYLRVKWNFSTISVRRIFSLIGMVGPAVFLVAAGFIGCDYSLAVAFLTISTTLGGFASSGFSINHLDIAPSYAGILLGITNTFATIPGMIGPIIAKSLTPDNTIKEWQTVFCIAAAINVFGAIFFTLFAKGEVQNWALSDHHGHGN

Sialin [3] = target: T3, Sialin (Rattus norvegicus, UniProt Q5Q0U0); assay: as above; type: cell-based; settings: room temperature, 4 min, Ringer's solution; self-competition with labelled compound
T3 construct: gene Slc17a5
T3 sequence (Q5Q0U0 1-495): T2 sequence (Q5Q0U0 1-495 Y54F) with F54Y

[4] = substrate: O=C(O)[C@H](O)[C@@H](O)[C@@H](O)[C@H](O)CO; assay: cells, lysate or membranes; type: cell-based, Escherichia coli; settings: 150 mM KCl, pH 6, 30 °C, 20 s, H+ cotransport, labelled compound

Molecule: DgoT (Escherichia coli; Y44F)
Km [1]: 22.8 ± 7.7 µM

IC50 (Sialin [2]): ~3000 µM
IC50 (Sialin [3]): ~2000 µM
Molecule: O=C(O)[C@H]1OC(O)[C@H](O)[C@@H](O)[C@@H]1O (stereo partly shown) [glucuronic acid]

B1: DgoT (Escherichia coli) (protein)
chain: MVSGFAMPKIWRKLAMDIPVNAAKPGRRRYLTLVMIFITVVICYVDRANLAVASAHIQEEFGITKAEMGYVFSAFAWLYTLCQIPGGWFLDRVGSRVTYFIAIFGWSVATLFQGFATGLMSLIGLRAITGIFEAPAFPTNNRMVTSWFPEHERASAVGFYTSGQFVGLAFLTPLLIWIQEMLSWHWVFIVTGGIGIIWSLIWFKVYQPPRLTKGISKAELDYIRDGGGLVDGDAPVKKEARQPLTAKDWKLVFHRKLIGVYLGQFAVASTLWFFLTWFPNYLTQEKGITALKAGFMTTVPFLAAFVGVLLSGWVADLLVRKGFSLGFARKTPIICGLLISTCIMGANYTNDPMMIMCLMALAFFGNGFASITWSLVSSLAPMRLIGLTGGVFNFAGGLGGITVPLVVGYLAQGYGFAPALVYISAVALIGALSYILLVGDVKRVG
notes: full length, C-terminal modified decahistidine tag, pBAD; expressed in dgoT-deleted E. coli (Keio dgoT727(del)::kan)
Km [4]: 1.97 ± 1.1 µM
